Reference: patent US20090035308A1

Target: Notch1-Fc
Test: competition ELISA: Dll4-Fc premixed with 50 ng Dll4 (E8)-AP on coated Notch1-Fc; reference Dll4-L1-Fc

fold difference between L1 and L2 fusion proteins: 3 fold
B1: Dll4-L2-Fc (Fc fusion, part only; not given: linker, Fc, not shown: a dimerising Fc or GST)
chain, part: SGVFQLQLQEFINERGVLASGRPCEPGCRTFFRVCLKHFQAVVSPGPCTFGTVSTPVLGTNSFAVRDDSSGGGRNPLQLPFNFTWPGTFSLIIEAWHAPGDDLRPEALPPDALISKIAIQGSLAVGQNWLLDEQTSTLTRLRYSYRVICSDNYYGDNCSRLCKKRNDHFGHYVCQPDGNLSCLPGWTGEYCQQPICLSGCHEQNGYCSKPAECLCRPGWQGRLCNECIPHNGCRHGTCSTPWQCTCDEGWGGLFCDQDLNYCTHHSPCKNGATCSNSGQRSYTCTCRPGYTGVDCELELSECDSNPCRNGGSCKDQEDGYHCLCPPGYYGLHCEHSTLSCADSPCFNGGSCRERNQGANYACECPPNFTGSNCEKKVDRCTSNPCANGGQCLNRGP
